The target in test [1] is T1, receptors of IL4/IL13 on TF-1 cells and PBMC (IL4 receptor) (human, UniProt P24394 26-825).
T1 sequence (looked up): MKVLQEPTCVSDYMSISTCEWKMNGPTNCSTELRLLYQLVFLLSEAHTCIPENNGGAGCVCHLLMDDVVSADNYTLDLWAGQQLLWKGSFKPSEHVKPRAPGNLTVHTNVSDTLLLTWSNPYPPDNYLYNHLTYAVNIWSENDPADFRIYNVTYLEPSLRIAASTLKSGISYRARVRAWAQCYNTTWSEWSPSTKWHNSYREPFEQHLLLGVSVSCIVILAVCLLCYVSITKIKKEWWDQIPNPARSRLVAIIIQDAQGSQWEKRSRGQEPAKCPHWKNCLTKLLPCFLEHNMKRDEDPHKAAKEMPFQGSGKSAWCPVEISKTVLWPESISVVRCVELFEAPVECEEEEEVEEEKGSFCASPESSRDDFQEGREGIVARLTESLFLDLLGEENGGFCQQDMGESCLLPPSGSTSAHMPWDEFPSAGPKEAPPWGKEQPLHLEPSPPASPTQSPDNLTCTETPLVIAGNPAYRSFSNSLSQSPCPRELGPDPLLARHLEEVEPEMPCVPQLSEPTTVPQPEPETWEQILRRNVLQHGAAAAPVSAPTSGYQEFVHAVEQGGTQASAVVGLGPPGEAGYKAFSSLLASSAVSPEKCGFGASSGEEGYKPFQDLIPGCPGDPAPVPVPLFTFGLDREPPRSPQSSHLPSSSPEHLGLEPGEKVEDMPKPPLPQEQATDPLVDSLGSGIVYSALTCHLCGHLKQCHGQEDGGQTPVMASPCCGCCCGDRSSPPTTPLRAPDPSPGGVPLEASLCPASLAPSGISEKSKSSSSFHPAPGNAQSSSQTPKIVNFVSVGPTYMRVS
The experiment in a line: cell-based or functional assay.

For test [2], the target named is T2, human IL4R (10402-H08H, Sinobiological Co., Ltd.) (human, UniProt P24394 26-232).
T2 construct: Bought protein, coated on ELISA plates; also called IL4R-His protein; IL4R protein; not shown: His tag
T2 sequence (looked up): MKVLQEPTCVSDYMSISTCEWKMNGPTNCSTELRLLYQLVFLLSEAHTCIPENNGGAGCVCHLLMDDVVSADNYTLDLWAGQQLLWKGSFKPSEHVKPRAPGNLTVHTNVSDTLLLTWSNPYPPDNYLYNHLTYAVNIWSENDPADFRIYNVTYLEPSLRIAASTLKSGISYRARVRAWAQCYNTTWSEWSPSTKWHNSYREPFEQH
The experiment in a line: ELISA: IL4R coated at graded concentrations (0.4-0 µg/ml), antibody fixed at 2 µg/ml. On the procedure: CBS coating solution (pH 9.6 carbonic acid solution) was used to coat protein IL4R (10402-H08H, Sinobiological Co., Ltd.) at different concentrations (0.4 μg/ml, 0.2 μg/ml, 0.1 μg/ml, 0.05 μg/ml, 0.025 μg/ml, 0.0125 μg/ml, 0.00625 μg/ml and 0 μg/ml) in 100 μL/well at 4° C. overnight; 3% skimmed milk powder was used for blocking 1 h at 37° C.; 100 μL of candidate antibody at 2 μg/ml was added to each well and incubated at 37° C. for 1 h; and then goat anti-human IgG (H+L)/HRP (KPL, Cat. No.: 474-1006) was added, and incubated at 37° C. for 1 h. Color development was stopped, after 10 min color development, with the addition of 50 μL of 2 M H₂SO₄ to each well, and OD450 was measured with a microplate reader. Compared with the control antibody, 3 antibodies had close binding sensitivity to IL4R protein.
(An ELISA detects its analyte on a solid surface through an enzyme-linked reagent.)

In test [3] the target is T3, IL4R-Fc-biotin (UniProt P24394 26-232, biotinylated (sites not given)).
T3 construct: also called IL4R-Fc protein (Sinobiological Co., Ltd., 10402-H02H); not shown: Fc part
T3 sequence (looked up): T2 sequence (looked up)
The experiment in a line: competition ELISA: IL4 coated, IL4R-Fc-biotin (0.4 µg/ml) pre-incubated with antibody dilutions. The protocol: IL4 (11846-HANE, Sinobiological Co., Ltd.) was coated at the concentration of 0.2 μg/ml in 100 μL/well at 4° C. overnight; 3% skimmed milk powder was used for blocking 1 h; at the same time, IL4R-Fc-biotin (0.4 μg/ml) and candidate antibody at different concentrations (30 μg/mL, 7.5 μg/mL, 1.875 μg/mL, […], 0.1171875 μg/mL and 0 μg/mL) were co-incubated at 37° C. for 1 h, then added to the blocked ELISA plate and co-incubated at 37° C. for another 1 h; then […]/HRP (R&D, Cat. No.: 890803) was added, and incubated at 37° C. for 1 h; color development was stopped, after 10 min color development, with the addition of 50 μL of 2M H₂SO₄ to each well. OD450 was measured with a microplate reader.

Test [4] concerns the target T3, IL4R-Fc-biotin. The experiment in a line: competition ELISA: IL13RA1 coated, IL4R-Fc-biotin (0.24 µg/ml) and IL13 (1 µg/ml) pre-incubated with antibody dilutions. On the procedure:
IL13RA1 (10943-H08H, Sinobiological Co., Ltd.) was coated at the concentration of 0.8 μg/ml in 100 μL/well at 4° C. overnight; 3% skimmed milk powder was used for blocking 1 h; at the same time, IL4R-Fc-biotin (0.24 μg/ml) and IL13 (1 μg/ml, 10369-HANE, Sinobiological Co., Ltd.) and candidate antibody at different concentrations (30 μg/mL, 7.5 μg/mL, 1.875 μg/mL, 0.46875 μg/mL, 0.1171875 μg/mL and 0 μg/mL) were co-incubated at 37° C. for 1 h, then added to the blocked ELISA plate and co-incubated at 37° C. for another 1 h; after washing three times with PBST, […]/HRP (R&D, Cat. No.: 890803) was added, and incubated at 37° C. for 1 h; and after washing four times with PBST, TMB was used for color development for 10 min. 50 μL of 2M H₂SO₄ was added to each well to stop color development. OD450 was measured with a microplate reader.

The target in test [5] is T3, IL4R-Fc-biotin. The experiment in a line: competition ELISA: IL4 coated, IL4R-Fc-biotin (0.4 µg/ml) with antibody dilutions. The protocol: IL4 (11846-HANE, Sinobiological Co., Ltd.) was coated at the concentration of 0.2 μg/ml in 100 μL/well at 4° C. overnight; 3% skimmed milk powder was used for blocking 1 h; at the same time, 50 μL of IL4R-Fc-biotin (0.4 μg/ml) and 50 μL of candidate antibody at different concentrations (16 μg/mL, 4 μg/mL, 1 μg/mL, 0.25 μg/mL, 0.0625 μg/mL, 0.015625 μg/mL, and 0.00390625 μg/mL), 100 μL in total, were added to the blocked ELISA plate and co-incubated at 37° C. for 1 h; after washing three times with PBST, […]/HRP (R&D, Cat. No.: 890803) was added, and incubated at 37° C. for 1 h; and 100 μL of TMB color developing solution (Beijing Meike Wande Co., Ltd., Cat. No.: 1001) was added to each well. Color development was stopped, after 10 min color development, with the addition of 50 μL of 2 M concentrated sulfuric acid, and OD450 was measured with a microplate reader.

Substitutions are numbered along the chain they refer to.

B1: Dupilumab (antibody, human IgG4 S228P, kappa, V domains shown)
VH: EVQLVESGGGLEQPGGSLRLSCAGSGFTFRDYAMTWVRQAPGKGLEWVSSISGSGGNTYYADSVKGRFTISRDNSKNTLYLQMNSLRAEDTAVYYCAKDRLSITIRPRYYGLDVWGQGTTVTVSS
VL: DIVMTQSPLSLPVTPGEPASISCRSSQSLLYSIGYNYLDWYLQKSGQSPQLLIYLGSNRASGVPDRFSGSGSGTDFTLKISRVEAEDVGFYYCMQALQTPYTFGQGTKLEIKR
In the case of B1, in test [1], the “IC50 (IL4, ng/mL), PBMC, inhibition of IL4-promoted proliferation” value (shortened to “IC50 (IL4, ng/mL), PBMC, inhibition”) was determined as 2.87 ng/mL; the “IC50 (IL4, ng/mL), TF-1 Cells, inhibition of IL4-induced proliferation” value (from here on “IC50 … inhibition of IL4-induced proliferation”) amounted to 65 ng/mL; the “IC50 (IL13, ng/mL), TF-1 Cells, inhibition of IL13-induced proliferation” value (from here on “IC50 … inhibition of IL13-induced proliferation”) came out at 9 ng/mL.

B2: IL4R-BA173-IgG4 (antibody, V domains shown)
VH: QVQLVESGGGVVQPGRSLRLSCAASGFTFSSYAMHWVRQAPGKGLEWVAVISYDGSNKYYADSVKGRFTISRDNSKNTLYLQMNSLRAEDTAVYYCARGLTTVRGVLYWGQGTLVTVSS
VL: DIVMTQSPSTLSASVGDRVTITCRASQSISTRLAWYQQKPGKAPKLLVYWASSLESGVPSRFSGSGSGTEFTLAISSLQPDDFGTYYCQQYTSYSWTFGQGTKLEIKR
notes: also called IL4RQ6-BA173
With B2, in test [1], the “IC50 (IL4, ng/mL), PBMC, inhibition” value turned out to be 1.02 ng/mL; the “IC50 … inhibition of IL4-induced proliferation” value worked out at 66 ng/mL; the “IC50 … inhibition of IL13-induced proliferation” value turned out to be 6 ng/mL. The EC50 in test [2] was 0.025 mg/L. In addition, the IC50 in the test with IL4R-Fc-biotin [3] is 0.367 mg/L. The molecule also returned an IC50 with IL4R-Fc-biotin [4] of 0.302 mg/L. Besides, the IC50 with IL4R-Fc-biotin [5] was determined as 0.354 mg/L.

B3: IL4R-BA167-IgG4 (antibody, V domains shown)
VH: B2 VH
VL: EIVMTQSPSSLSASLGDRVTITCRASQNIGSRLAWYQQKPGKAPKLLIYKASSLESGVPSRFSGSGSGTEFTLTISSLQPDDFATYYCQQYNSYSWTFGQGTKLEIKR
notes: also called IL4RQ6-BA167
On to B3, for which, in test [1], the “IC50 (IL4, ng/mL), PBMC, inhibition” value is 1.52 ng/mL; the “IC50 … inhibition of IL4-induced proliferation” value is 139 ng/mL; the “IC50 … inhibition of IL13-induced proliferation” value was found to be 5 ng/mL. Further, the EC50 in test [2] was determined as 0.045 mg/L. Besides, the IC50 with IL4R-Fc-biotin [3] is 0.477 mg/L. The IC50 in the test with IL4R-Fc-biotin [4] was 0.407 mg/L. In the test with IL4R-Fc-biotin [5], this molecule displayed an IC50 of 0.458 mg/L.

B4: IL4R-BA030-IgG4 (antibody, V domains shown)
VH: QVQLVESGGGVVQPGRSLRLSCAASGFTFSSYAIHWVRQAPGKGLEWVAVISYDGSKKYYADSVKGRFTISRDNSKNTLYLQMNSLRAEDTAVYYCAREYYYGMDVWGQGTTVTVSS
VL: DIVMTQSPSTLSASVGDRVTITCRASQSISNWLAWYQQKPGKAPKRLIYKASSLESGVPSRFSGSGSGTEFTLTISSLQPDDFATYYCQQYNRYFTFGQGTKLEIKR
notes: also called IL4RQ14-BA030
As for B4, in test [1], the “IC50 (IL4, ng/mL), PBMC, inhibition” value is 8.09 ng/mL; the “IC50 … inhibition of IL4-induced proliferation” value turned out to be 227 ng/mL; the “IC50 … inhibition of IL13-induced proliferation” value is 9 ng/mL. This molecule yielded an EC50 in test [2] of 0.031 mg/L. The molecule also returned an IC50 with IL4R-Fc-biotin [3] of 0.346 mg/L. The IC50 in the test with IL4R-Fc-biotin [4] amounted to 0.381 mg/L. Also, the IC50 with IL4R-Fc-biotin [5] amounted to 0.343 mg/L.

B5: BA420 (antibody, IgG4, V domains shown)
VH: QVQLVESGGGAVQPGRSLRVSCAASGFTFSSHGMDWVRQVPGKGLEWVAVISYDGKKKYYADSVKGRFTISRDNSKNTLYLQMNSLRAEDTAIYYCVKESRYYYGMDVWGQGTTVTVSS
VL: DIVMTQSPSTLSASVGDRVTITCRASPSISSWLAWYQQKPGKAPKVLIYKSSRLESGVPSRFSGNGSGTEFTLTISSLQPDDFATYYCQQYNGYSWTFGQGTKVEIKR
notes: also called IL4RQ24-BA420
B5 returned an IC50 with IL4R-Fc-biotin [5] of 0.334 mg/L.

B6: BA034 (antibody, IgG4, V domains shown)
VH: B5 VH with G8R
VL: B5 VL with V3Q, P27Q, I29F, S30N, V46L, N65S
notes: also called IL4RQ14-BA034
The molecule B6 came in with an IC50 with IL4R-Fc-biotin [5] of 0.71 mg/L.

B7: BA1301 (antibody, IgG4, V domains shown)
VH: QVQLVESGGGVVQPGRSLRLSCAASGLTFSSYAMHWVRQAPGKGLEWVAVISYDGSNKYYADSVKGRFTISRDNSKNTLYLQMNSLRAEDTAVYYCARGFGYFDLWGRGTLVTVSS
VL: DIQMTQSPSTLSASVGDRVTITCRASQSITRRLAWYQQKPGKAPKLLIYKASSLESGVPSRFSGSGSGTEFTLTISSLQPDDFATYYCQQYVSFSRTFGQGTKVEIKR
notes: also called IL4RQ29-BA1301
The molecule B7 displayed an IC50 in the test with IL4R-Fc-biotin [5] of 0.592 mg/L.

Broadly, the EC50 is the concentration at which the effect is half-maximal. Read a high EC50 as a less potent agent. Usually IC50 stands for the concentration that inhibits the measured activity by half.
